Results taken from EP4631959A2, “NOVEL MINIGASTRIN-DERIVED CHOLECYSTOKININ 2 RECEPTOR BINDING MOLECULES FOR IMAGING AND TARGETED RADIOTHERAPY” (priority 2022, dated 2024).
Where two headings read alike, the source gives them in different places. Starred links: 1 amine or outer side, 2 acyl side, 3 side chain; linkers in the order of their positions; H or OH if unused. Non-standard residues stand in square brackets, D forms with d. Residues, ends and D or L forms follow the SMILES beside them. *: point of attachment. DOTAGA = O=C(O)CN1CCN(CC(=O)O)CCN(C(CCC(=O)*)C(=O)O)CCN(CC(=O)O)CC1; Benzoyl(4-SiFtBu2) = CC(C)(C)[Si](F)(c1ccc(C(=O)*)cc1)C(C)(C)C; DOTA = O=C(O)CN1CCN(CC(=O)O)CCN(CC(=O)*)CCN(CC(=O)O)CC1; d(γGlu) = O=C(O)[C@@H](CCC(=O)[*:2])N[*:1]; PEG8 = NCCOCCOCCOCCOCCOCCOCCOCCOCCC(=O)O; 1Nal = N[C@@H](Cc1cccc2ccccc12)C(=O)O; NMeNle = CCCC[C@H](NC)C(=O)O; PEG3 = NCCOCCOCCOCCC(=O)O; Nle = CCCC[C@H](N)C(=O)O; dDap = NC[C@@H](N)C(=O)O

Columns and labels:
CCK-2R = target: T1, CCK-2R (Rattus norvegicus, UniProt P30553); assay: Determination of IC50: CCK-2R affinity on AR4-2J cells, competition with [^177Lu]Lu-DOTA-PP-F11N; format: binding
T1 construct: The CCK-2R expressing rat pancreatic tumor cells AR4-2J; host or cells: AR4-2J rat pancreatic tumor cells
T1 sequence (P30553 1-452): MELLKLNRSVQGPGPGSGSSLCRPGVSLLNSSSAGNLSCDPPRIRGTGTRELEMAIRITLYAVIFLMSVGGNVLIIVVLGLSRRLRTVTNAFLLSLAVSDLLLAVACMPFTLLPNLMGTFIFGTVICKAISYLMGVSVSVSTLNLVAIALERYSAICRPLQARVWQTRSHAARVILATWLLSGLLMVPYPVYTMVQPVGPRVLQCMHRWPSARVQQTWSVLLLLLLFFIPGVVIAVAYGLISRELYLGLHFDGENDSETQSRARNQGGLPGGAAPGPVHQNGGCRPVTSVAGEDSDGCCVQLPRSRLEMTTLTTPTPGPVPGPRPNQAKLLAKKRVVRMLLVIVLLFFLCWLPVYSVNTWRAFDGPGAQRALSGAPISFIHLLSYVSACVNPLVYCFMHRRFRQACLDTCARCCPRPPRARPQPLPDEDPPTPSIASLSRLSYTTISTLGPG
In short: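 Competitive displacement of 0.3 pmol/well [177Lu]Lu-DOTA-PP-F11N by compounds (10^-10 to 10^-4 M) on AR4-2J cells in BSA-supplemented medium, 3 h at 37 °C. Free label was collected from medium plus PBS rinse, and cell-bound label was recovered with 1 M NaOH, both measured by γ-counter. Each IC50 was determined twice, in triplicate.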

[1] = n-Octanol-PBS distribution coefficient (logD7.4); format: physicochemical; details: pH = 7.4, ^177Lu-labeled
Experimental: Approximately 1 MBq of the labeled tracer was dissolved in 1 mL of a 1/1 mixture (v/v) of phosphate buffered saline (PBS, pH = 7.4) and n-octanol in an Eppendorf tube (1.5 mL). After vigorous mixing of the suspension for 3 min at rt, the vial was centrifuged at 9,000 rpm for 5 min (Biofuge 15, Heraeus Sepatech, Osterode, Germany) and 200 µL aliquots of both layers were measured in a γ-counter. The experiment was repeated at least five times.

[2] = AR4-2J cells; ^natLu-labeled; read-out: IC50 [nM] (n = 3), ^natLu-labeled
[3] = read-out: IC50 [nM] (n = 3), ^natLu-labeled; AR4-2J cells; ^natLu-labeled

Row | SMILES | IC50 (CCK-2R; [2]) [nM] | logD7.4 (n ≥ 5), ^177Lu-labeled [1] | IC50 (CCK-2R; [3]) [nM] | logD7.4 (n ≥ 5), ^177Lu-labeled ([1]; listed as [^177Lu]Lu-DOTA-CCK-63)
1 | CCCC[C@@H](C(=O)N[C@@H](CC(=O)O)C(=O)N[C@@H](Cc1cccc2ccccc12)C(N)=O)N(C)C(=O)[C@H](Cc1c[nH]c2ccccc12)NC(=O)CCOCCOCCOCCOCCOCCOCCOCCOCCNC(=O)CC[C@@H](NC(=O)CN1CCN(CC(=O)O)CCN(CC(=O)O)CCN(CC(=O)O)CC1)C(=O)O [DOTA-CCK-80, DOTA-γ-glu-(PEG)7-Trp-(N-Me)Nle-Asp-1-Nal-NH2] ({DOTA-d(γGlu)-PEG8}-W[NMeNle]D[1Nal]-NH2) | 7.9 ± 0.2 | −2.51 ± 0.09 | – | –
2 | CCCC[C@H](NC(=O)[C@H](Cc1c[nH]c2ccccc12)NC(=O)CNC(=O)[C@H](Cc1ccc(O)cc1)NC(=O)[C@H](C)NC(=O)CC[C@@H](NC(=O)CC[C@@H](NC(=O)CC[C@@H](NC(=O)CC[C@@H](NC(=O)[C@@H](CNC(=O)c1ccc([Si](F)(C(C)(C)C)C(C)(C)C)cc1)NC(=O)CC[C@@H](NC(=O)CC[C@@H](NC(=O)CC[C@@H](NC(=O)CCC(C(=O)O)N1CCN(CC(=O)O)CCN(CC(=O)O)CCN(CC(=O)O)CC1)C(=O)O)C(=O)O)C(=O)O)C(=O)O)C(=O)O)C(=O)O)C(=O)O)C(=O)N[C@@H](CC(=O)O)C(=O)N[C@@H](Cc1ccccc1)C(N)=O (some centres unmarked) [DOTAGA-MG-SiFA-24, DOTAGA-(γ-glu)2-[dap(SiFA)^2]γ-F11N] ({DOTAGA-d(γGlu)-d(γGlu)-d(γGlu)}-[dDap](Benzoyl(4-SiFtBu2))[d(γGlu)][d(γGlu)][d(γGlu)][d(γGlu)]AYGW[Nle]DF-NH2) | – | −2.72 ± 0.05 | 66.6 ± 4.4 | –
3 | CCCC[C@@H](C(=O)N[C@@H](CC(=O)O)C(=O)N[C@@H](Cc1cccc2ccccc12)C(N)=O)N(C)C(=O)[C@H](Cc1c[nH]c2ccccc12)NC(=O)CCOCCOCCOCCNC(=O)CC[C@@H](NC(=O)CN1CCN(CC(=O)O)CCN(CC(=O)O)CCN(CC(=O)O)CC1)C(=O)O [DOTA-CCK-63, DOTA-γ-glu-(PEG)2-Trp-(N-Me)Nle-Asp-1-Nal-NH2] ({DOTA-d(γGlu)-PEG3}-W[NMeNle]D[1Nal]-NH2) | 4.8 ± 1.1 | −3.03 ± 0.09 | – | < -3
4 | CCCC[C@H](NC(=O)[C@H](Cc1c[nH]c2ccccc12)NC(=O)CNC(=O)[C@H](Cc1ccc(O)cc1)NC(=O)[C@H](C)NC(=O)CC[C@@H](NC(=O)CC[C@@H](NC(=O)CC[C@@H](NC(=O)CC[C@@H](NC(=O)CC[C@@H](NC(=O)CC[C@@H](NC(=O)CC[C@@H](NC(=O)CC[C@@H](NC(=O)[C@@H](CNC(=O)c1ccc([Si](F)(C(C)(C)C)C(C)(C)C)cc1)NC(=O)CCC(C(=O)O)N1CCN(CC(=O)O)CCN(CC(=O)O)CCN(CC(=O)O)CC1)C(=O)O)C(=O)O)C(=O)O)C(=O)O)C(=O)O)C(=O)O)C(=O)O)C(=O)O)C(=O)N[C@@H](CC(=O)O)C(=O)N[C@@H](Cc1ccccc1)C(N)=O (some centres unmarked) [DOTAGA-MG-SiFA-23, DOTAGA-dap(SiFA)-(γ-glu)2-γ-F11N] | – | −2.10 ± 0.06 | 20.4 ± 2 | –
5 | CCCC[C@H](NC(=O)[C@H](Cc1c[nH]c2ccccc12)NC(=O)CNC(=O)[C@H](Cc1ccc(O)cc1)NC(=O)[C@H](C)NC(=O)CC[C@@H](NC(=O)CC[C@@H](NC(=O)CC[C@@H](NC(=O)CC[C@@H](NC(=O)CC[C@@H](NC(=O)CCCNC(=O)CCCNC(=O)CCCNC(=O)[C@@H](CNC(=O)c1ccc([Si](F)(C(C)(C)C)C(C)(C)C)cc1)NC(=O)CN1CCN(CC(=O)O)CCN(CC(=O)O)CCN(CC(=O)O)CC1)C(=O)O)C(=O)O)C(=O)O)C(=O)O)C(=O)O)C(=O)N[C@@H](CC(=O)O)C(=O)N[C@@H](Cc1ccccc1)C(N)=O [DOTA-MG-SiFA-46, DOTA-dap(SiFA)-(GABA)3-(γ-glu)5-F11N] | – | −2.09 ± 0.07 | 5.52 ± 0.25 | –
6 | CCCC[C@H](NC(=O)[C@H](Cc1c[nH]c2ccccc12)NC(=O)CNC(=O)[C@H](Cc1ccc(O)cc1)NC(=O)[C@H](C)NC(=O)CC[C@@H](NC(=O)CC[C@@H](NC(=O)CC[C@@H](NC(=O)CC[C@@H](NC(=O)CC[C@@H](NC(=O)CC[C@@H](NC(=O)CC[C@@H](NC(=O)CC[C@@H](CO)NC(=O)[C@@H](CNC(=O)c1ccc([Si](F)(C(C)(C)C)C(C)(C)C)cc1)NC(=O)CN1CCN(CC(=O)O)CCN(CC(=O)O)CCN(CC(=O)O)CC1)C(=O)O)C(=O)O)C(=O)O)C(=O)O)C(=O)O)C(=O)O)C(=O)O)C(=O)N[C@@H](CC(=O)O)C(=O)N[C@@H](Cc1ccccc1)C(N)=O [DOTA-MG-SiFA-29, DOTA-dap(SiFA)-Glutamol-(γ-glu)7-F11N] | – | −1.88 ± 0.07 | 6.55 ± 1.23 | –
7 | CCCC[C@H](NC(=O)[C@H](Cc1c[nH]c2ccccc12)NC(=O)CNC(=O)[C@H](Cc1ccc(O)cc1)NC(=O)[C@H](C)NC(=O)CC[C@@H](NC(=O)CCCNC(=O)CC[C@@H](NC(=O)CCCNC(=O)CC[C@@H](NC(=O)CCCNC(=O)CC[C@@H](NC(=O)CCCNC(=O)[C@@H](CNC(=O)c1ccc([Si](F)(C(C)(C)C)C(C)(C)C)cc1)NC(=O)CN1CCN(CC(=O)O)CCN(CC(=O)O)CCN(CC(=O)O)CC1)C(=O)O)C(=O)O)C(=O)O)C(=O)O)C(=O)N[C@@H](CC(=O)O)C(=O)N[C@@H](Cc1ccccc1)C(N)=O [DOTA-MG-SiFA-47, DOTA-dap(SiFA)-(GABA-γ-glu)4-F11N] | – | −1.93 ± 0.08 | 6.77 ± 1.01 | –
8 | CCCC[C@H](NC(=O)[C@H](Cc1c[nH]c2ccccc12)NC(=O)CNC(=O)[C@H](Cc1ccc(O)cc1)NC(=O)[C@H](C)NC(=O)CC[C@@H](NC(=O)CC[C@@H](NC(=O)CC[C@@H](NC(=O)CC[C@@H](NC(=O)[C@@H](CNC(=O)c1ccc([Si](F)(C(C)(C)C)C(C)(C)C)cc1)NC(=O)CC[C@@H](NC(=O)CC[C@@H](NC(=O)CC[C@@H](NC(=O)CC[C@@H](NC(=O)CCC(C(=O)O)N1CCN(CC(=O)O)CCN(CC(=O)O)CCN(CC(=O)O)CC1)C(=O)O)C(=O)O)C(=O)O)C(=O)O)C(=O)O)C(=O)O)C(=O)O)C(=O)O)C(=O)N[C@@H](CC(=O)O)C(=O)N[C@@H](Cc1ccccc1)C(N)=O (some centres unmarked) [DOTAGA-MG-SiFA-25, DOTAGA-(γ-glu)3-[dap(SiFA)^2]γ-F11N] ({DOTAGA-d(γGlu)-d(γGlu)-d(γGlu)-d(γGlu)}-[dDap](Benzoyl(4-SiFtBu2))[d(γGlu)][d(γGlu)][d(γGlu)][d(γGlu)]AYGW[Nle]DF-NH2) | – | −2.74 ± 0.04 | 62.9 ± 8.1 | –
9 | CCCC[C@@H](C(=O)N[C@@H](CC(=O)O)C(=O)N[C@@H](Cc1cccc2ccccc12)C(N)=O)N(C)C(=O)[C@H](Cc1c[nH]c2ccccc12)NC(=O)CNC(=O)CNC(=O)CNC(=O)CC[C@@H](NC(=O)CN1CCN(CC(=O)O)CCN(CC(=O)O)CCN(CC(=O)O)CC1)C(=O)O [DOTA-CCK-62, DOTA-γ-glu-(Gly)3-Trp-(N-Me)Nle-Asp-1-Nal-NH2] ({DOTA-d(γGlu)}-GGGW[NMeNle]D[1Nal]-NH2) | 8.2 ± 1.3 | −2.66 ± 0.06 | – | –
10 | CCCC[C@H](NC(=O)[C@H](Cc1c[nH]c2ccccc12)NC(=O)CNC(=O)[C@H](Cc1ccc(O)cc1)NC(=O)[C@H](C)NC(=O)CC[C@@H](NC(=O)CC[C@@H](NC(=O)CC[C@@H](NC(=O)CC[C@@H](NC(=O)CC[C@@H](NC(=O)[C@@H](CNC(=O)c1ccc([Si](F)(C(C)(C)C)C(C)(C)C)cc1)NC(=O)CC[C@@H](NC(=O)CC[C@@H](NC(=O)CC[C@@H](NC(=O)CC[C@@H](NC(=O)CCC(C(=O)O)N1CCN(CC(=O)O)CCN(CC(=O)O)CCN(CC(=O)O)CC1)C(=O)O)C(=O)O)C(=O)O)C(=O)O)C(=O)O)C(=O)O)C(=O)O)C(=O)O)C(=O)O)C(=O)N[C@@H](CC(=O)O)C(=O)N[C@@H](Cc1ccccc1)C(N)=O (some centres unmarked) [DOTAGA-MG-SiFA-26, DOTAGA-(γ-glu)4-[dap(SiFA)^1]γ-F11N] ({DOTAGA-d(γGlu)-d(γGlu)-d(γGlu)-d(γGlu)}-[dDap](Benzoyl(4-SiFtBu2))[d(γGlu)][d(γGlu)][d(γGlu)][d(γGlu)][d(γGlu)]AYGW[Nle]DF-NH2) | – | −2.89 ± 0.04 | 37.1 ± 3.8 | –
11 | CCCC[C@H](NC(=O)[C@H](Cc1c[nH]c2ccccc12)NC(=O)CNC(=O)[C@H](Cc1ccc(O)cc1)NC(=O)[C@H](C)NC(=O)[C@@H](CCC(=O)O)NC(=O)[C@@H](CCC(=O)O)NC(=O)[C@@H](CCC(=O)O)NC(=O)[C@@H](CCC(=O)O)NC(=O)[C@@H](CCC(=O)O)NC(=O)[C@@H](CNC(=O)c1ccc([Si](F)(C(C)(C)C)C(C)(C)C)cc1)NC(=O)[C@@H](CCC(=O)O)NC(=O)CCC(C(=O)O)N1CCN(CC(=O)O)CCN(CC(=O)O)CCN(CC(=O)O)CC1)C(=O)N[C@@H](CC(=O)O)C(=O)N[C@@H](Cc1ccccc1)C(N)=O (some centres unmarked) [DOTAGA-MG-SiFA-10, DOTAGA-glu-[dap(SiFA)^1]F11N] ({DOTAGA}-[dE][dDap](Benzoyl(4-SiFtBu2))[dE][dE][dE][dE][dE]AYGW[Nle]DF-NH2) | – | −2.22 ± 0.08 | 56.8 ± 6.4 | –
